These results are taken from article PMC4930699 (Cancer research, 2016).

The series deals with the molecule itself. Description: cross-linking.

B1: Flag-PKM2 K305R (enzyme)
chain: not shown
Consider B1, for which the binding result is “binds”.
